Source: publication PMC7954794, “Protein context shapes the specificity of SH3 domain-mediated interactions in vivo” (Nature Communications, 2021)

System: growth of yeast strains under 51 stress conditions
Assay: Growth assays in 51 stress conditions (Fig. 1E-F, S2D, S5B)
Assay type: cell-based, Saccharomyces cerevisiae
Set-up: key to Growth (Fig. S2D) / growth of ABP1 SH3-swapped strains in stress condition: log2 colony size, average of median per strain (growth score)
Conditions: for relative_to_wt, D_minus_WT / relative_to_wt, KO_minus_WT: Bathophenanthroline 0.1uM, log2 colony size, 74 h at 37 °C, n = 12; for relative_to_wt, D_minus_WT: D = SH3 deletion (all SH3s deleted for multi-SH3 proteins); for relative_to_wt, KO_minus_WT: KO = gene deletion; for Growth (Fig. S2D): ABP1 SH3-swapped strains
Experimental: All WT, SH3-deleted, KO (except for CDC25 which is the only essential SH3-containing gene in yeast), ABP1 SH3-swapped, and SLA1 SH3-shuffled strains were grown on omnitrays in 1536 formats and robotically manipulated with a pin tool (the DHFR F[1,2] bait strains were used except for the KO strains). Each strain was randomly positioned in 6 replicates per plate and two plates per condition were performed, for 12 replicates per strain in total. A border of two rows and two columns of WT strains (BY4741) around the plate was used to remove border effects. Strains were grown on YPD media for two days at 30 °C. They were then replicated on 51 different media that are described in the Supplementary Table 3 and were incubated at 37 °C in a spImager custom platform with images acquired every two hours for four days. The colony sizes from plate pictures were also measured with the R package “Gitter” and the output was manually inspected. Positions with an abnormality in colony circularity were removed. The colony sizes after 74 h of incubation at 37 °C were log2 transformed and used for the analyses. First, the differences between the two plate replicates were corrected to remove plate effects. The median colony size was calculated for each strain per plate. Strains with a difference in their median colony size of more than two between the two plate replicates were removed. Finally, the average of the median colony size was calculated for each strain per condition (growth score).

B1: ABP1: yeast SH3-containing protein; SH3-deleted (D) or gene-deleted (KO) strain (protein, UniProt P15891 2-592, looked up)
Actin-binding protein: ALEPIDYTTHSREIDAEYLKIVRGSDPDTTWLIISPNAKKEYEPESTGSSFHDFLQLFDETKVQYGLARVSPPGSDVEKIIIIGWCPDSAPLKTRASFAANFAAVANNLFKGYHVQVTARDEDDLDENELLMKISNAAGARYSIQTSSKQQGKASTPPVKKSFTPSKSPAPVSKKEPVKTPSPAPAAKISSRVNDNNDDDDWNEPELKERDFDQAPLKPNQSSYKPIGKIDLQKVIAEEKAKEDPRLVQKPTAAGSKIDPSSDIANLKNESKLKRDSEFNSFLGTTKPPSMTESSLKNDDDKVIKGFRNEKSPAQLWAERKAKQNSGNAETKAEAPKPEVPEDEPEGEPDVKDLKSKFEGLAASEKEEEEMENKFAPPPKKSEPTIISPKPFSKPQEPVKAEEAEQPKTDYKKIGNPLPGMHIEADNEEEPEENDDDWDDDEDEAAQPPLPSRNVASGAPVQKEEPEQEEIAPSLPSRNSIPAPKQEEAPEQAPEEEIEEEAEEAAPQLPSRSSAAPPPPPRRATPEKKPKENPWATAEYDYDAAEDNELTFVENDKIINIEFVDDDWWLGELEKDGSKGLFPSNYVSLGN
size (colony size) (Abp1 SH3 swaps (FigS2D), SC pH6, Plate 1, Time 74, Rep 1, one colony): 2065
relative_to_wt, D_minus_WT: 0.05618
relative_to_wt, KO_minus_WT: -0.004019
Growth (Fig. S2D) (Bathophenanthroline.0.1uM): 10.7819
Growth (Fig. S2D) (Bathophenanthroline.10uM): 10.707
Growth (Fig. S2D) (Bathophenanthroline.1uM): 10.7137
Growth (Fig. S2D) (CaCl2.100mM): 10.7891
Growth (Fig. S2D) (CaCl2.250mM): 10.7489
Growth (Fig. S2D) (CaCl2.500mM): 10.224
Growth (Fig. S2D) (Caffein.10mM): 10.0464
Growth (Fig. S2D) (CdCl2.10uM): 10.9024
Growth (Fig. S2D) (CdCl2.50uM): 10.1243
Growth (Fig. S2D) (CuSO4.1mM): 10.685
Growth (Fig. S2D) (CuSO4.5mM): 8.504
Growth (Fig. S2D) (Cycloheximide.0.05.uM): 11.0798
Growth (Fig. S2D) (Cycloheximide.0.2.uM): 10.7165
Growth (Fig. S2D) (Cycloheximide.0.5.uM): 10.6015
Growth (Fig. S2D) (DMSO.2.): 11.0276
Growth (Fig. S2D) (DMSO.6.): 10.032
Growth (Fig. S2D) (DMSO.8.): 9.2108
Growth (Fig. S2D) (Ethanol.2.): 10.8119
Growth (Fig. S2D) (Ethanol.6.): 10.4593
Growth (Fig. S2D) (Ethanol.8.): 10.4305
Growth (Fig. S2D) (Galactose.2.): 10.8275
Growth (Fig. S2D) (Glycerol.2.): 10.3524
Growth (Fig. S2D) (Hydroxyurea.25mM): 10.8959
Growth (Fig. S2D) (Hygromycin.190uM): 10.9986
Growth (Fig. S2D) (Hygromycin.19uM): 10.9797
Growth (Fig. S2D) (Hygromycin.95uM): 11.0235
Growth (Fig. S2D) (MMS.0.004.): 10.9969
Growth (Fig. S2D) (MMS.0.02.): 10.8642
Growth (Fig. S2D) (MMS.0.04.): 10.3851
Growth (Fig. S2D) (Menadione.100uM): 10.5759
Growth (Fig. S2D) (Menadione.200uM): 10.5046
Growth (Fig. S2D) (Menadione.50uM): 10.8116
Growth (Fig. S2D) (NaCl.0.25M): 10.7355
Growth (Fig. S2D) (NaCl.1M): 10.3236
Growth (Fig. S2D) (Nitroquinoline.10uM): 10.7675
Growth (Fig. S2D) (Nitroquinoline.50uM): 10.7265
Growth (Fig. S2D) (Nystatin.0.01uM): 11.043
Growth (Fig. S2D) (Nystatin.0.1uM): 11.0609
Growth (Fig. S2D) (Raffinose.2.): 10.9185
Growth (Fig. S2D) (Rapamycin.10nM): 10.1065
Growth (Fig. S2D) (Rapamycin.50nM): 9.408
Growth (Fig. S2D) (SC.pH3): 10.3986
Growth (Fig. S2D) (SC.pH6): 11.0415
Growth (Fig. S2D) (SDS.0.01.): 10.9914
Growth (Fig. S2D) (SDS.0.02.): 10.9706
Growth (Fig. S2D) (SDS.0.05.): 10.8264
Growth (Fig. S2D) (Sorbitol.10mM): 10.9836
Growth (Fig. S2D) (Sorbitol.1mM): 10.9924
Growth (Fig. S2D) (Sorbitol.5mM): 10.9128

B2: BBC1: yeast SH3-containing protein; SH3-deleted or knockout strain (protein, UniProt P47068 1-1157, looked up)
Myosin tail …: MSEPEVPFKVVAQFPYKSDYEDDLNFEKDQEIIVTSVEDAEWYFGEYQDSNGDVIEGIFPKSFVAVQGSEVGKEAESSPNTGSTEQRTIQPEVEQKDLPEPISPETKKETLSGPVPVPAATVPVPAATVPVPAATAVSAQVQHDSSSGNGERKVPMDSPKLKARLSMFNQDITEQVPLPKSTHLDLENIPVKKTIVADAPKYYVPPGIPTNDTSNLERKKSLKENEKKIVPEPINRAQVESGRIETENDQLKKDLPQMSLKERIALLQEQQRLQAAREEELLRKKAKLEQEHERSAVNKNEPYTETEEAEENEKTEPKPEFTPETEHNEEPQMELLAHKEITKTSREADEGTNDIEKEQFLDEYTKENQKVEESQADEARGENVAEESEIGYGHEDREGDNDEEKEEEDSEENRRAALRERMAKLSGASRFGAPVGFNPFGMASGVGNKPSEEPKKKQHKEKEEEEPEQLQELPRAIPVMPFVDPSSNPFFRKSNLSEKNQPTETKTLDPHATTEHEQKQEHGTHAYHNLAAVDNAHPEYSDHDSDEDTDDHEFEDANDGLRKHSMVEQAFQIGNNESENVNSGEKIYPQEPPISHRTAEVSHDIENSSQNTTGNVLPVSSPQTRVARNGSINSLTKSISGENRRKSINEYHDTVSTNSSALTETAQDISMAAPAAPVLSKVSHPEDKVPPHPVPSAPSAPPVPSAPSVPSAPPVPPAPPALSAPSVPPVPPVPPVSSAPPALSAPSIPPVPPTPPAPPAPPAPLALPKHNEVEEHVKSSAPLPPVSEEYHPMPNTAPPLPRAPPVPPATFEFDSEPTATHSHTAPSPPPHQNVTASTPSMMSTQQRVPTSVLSGAEKESRTLPPHVPSLTNRPVDSFHESDTTPKVASIRRSTTHDVGEISNNVKIEFNAQERWWINKSAPPAISNLKLNFLMEIDDHFISKRLHQKWVVRDFYFLFENYSQLRFSLTFNSTSPEKTVTTLQERFPSPVETQSARILDEYAQRFNAKVVEKSHSLINSHIGAKNFVSQIVSEFKDEVIQPIGARTFGATILSYKPEEGIEQLMKSLQKIKPGDILVIRKAKFEAHKKIGKNEIINVGMDSAAPYSSVVTDYDFTKNKFRVIENHEGKIIQNSYKLSHMKSGKLKVFRIVARGYVGW
relative_to_wt, D_minus_WT: -0.7326
relative_to_wt, KO_minus_WT: -0.7845
Growth (Fig. S2D) (Bathophenanthroline.0.1uM): 10.8555
Growth (Fig. S2D) (Bathophenanthroline.10uM): 10.7329
Growth (Fig. S2D) (Bathophenanthroline.1uM): 10.8406
Growth (Fig. S2D) (CaCl2.100mM): 10.8635
Growth (Fig. S2D) (CaCl2.250mM): 10.7473
Growth (Fig. S2D) (CaCl2.500mM): 10.2321
Growth (Fig. S2D) (Caffein.10mM): 10.0361
Growth (Fig. S2D) (Caffein.2mM): 11.0328
Growth (Fig. S2D) (CdCl2.100uM): 9.446
Growth (Fig. S2D) (CdCl2.10uM): 10.9111
Growth (Fig. S2D) (CdCl2.50uM): 9.87
Growth (Fig. S2D) (CuSO4.1mM): 10.4195
Growth (Fig. S2D) (CuSO4.5mM): 7.7318
Growth (Fig. S2D) (Cycloheximide.0.05.uM): 11.1604
Growth (Fig. S2D) (Cycloheximide.0.2.uM): 10.7217
Growth (Fig. S2D) (Cycloheximide.0.5.uM): 10.1165
Growth (Fig. S2D) (DMSO.2.): 11.0262
Growth (Fig. S2D) (DMSO.6.): 9.821
Growth (Fig. S2D) (DMSO.8.): 9.042
Growth (Fig. S2D) (Ethanol.2.): 10.863
Growth (Fig. S2D) (Ethanol.6.): 10.43
Growth (Fig. S2D) (Ethanol.8.): 10.2184
Growth (Fig. S2D) (Galactose.2.): 10.7901
Growth (Fig. S2D) (Glycerol.2.): 9.731
Growth (Fig. S2D) (Hydroxyurea.25mM): 10.7777
Growth (Fig. S2D) (Hygromycin.190uM): 11.0445
Growth (Fig. S2D) (Hygromycin.19uM): 11.0769
Growth (Fig. S2D) (Hygromycin.95uM): 11.0543
Growth (Fig. S2D) (MMS.0.004.): 10.9787
Growth (Fig. S2D) (MMS.0.02.): 10.743
Growth (Fig. S2D) (MMS.0.04.): 9.98
Growth (Fig. S2D) (Menadione.100uM): 10.5737
Growth (Fig. S2D) (Menadione.200uM): 10.4364
Growth (Fig. S2D) (Menadione.50uM): 10.8865
Growth (Fig. S2D) (NaCl.0.25M): 10.7759
Growth (Fig. S2D) (NaCl.1M): 9.566
Growth (Fig. S2D) (Nitroquinoline.10uM): 10.676
Growth (Fig. S2D) (Nitroquinoline.50uM): 10.6106
Growth (Fig. S2D) (Nystatin.0.01uM): 10.9601
Growth (Fig. S2D) (Nystatin.0.1uM): 11.003
Growth (Fig. S2D) (Raffinose.2.): 11.0344
Growth (Fig. S2D) (Rapamycin.10nM): 9.767
Growth (Fig. S2D) (Rapamycin.50nM): 9.406
Growth (Fig. S2D) (SC.pH3): 10.4328
Growth (Fig. S2D) (SC.pH6): 11.0565
Growth (Fig. S2D) (SDS.0.01.): 11.0008
Growth (Fig. S2D) (SDS.0.02.): 11.0385
Growth (Fig. S2D) (SDS.0.05.): 10.9076
Growth (Fig. S2D) (Sorbitol.10mM): 11.0218
Growth (Fig. S2D) (Sorbitol.1mM): 10.99
Growth (Fig. S2D) (Sorbitol.5mM): 10.8909
